The RNAGym collection of RNA variant scans (doi:10.7554/elife.80360)

B1: Hammerhead Ribozyme (parent)
chain: ACCGGAUGUGCUUUCCGGUCUGAUGAGUCCGUGAGGACGAAACAG

Variants of: B1
Experiment: self-cleavage, relative activity (ratio to wild type); higher = more cleavage; co-transcriptional

For ACCGGGUGUGCUUUCCGGUCUGAUGAGUCCGUGAGGUCGAAACAG [A6G A37U], which self-cleavage is on record?
The self-cleavage was 0.44.

With AUCGGAUGUUCUUUCCGGUCUGAUGAGUCCGUGAGGACGAAACAG [C2U G10U] as the variant, how does the self-cleavage read?
The self-cleavage was 1.39.

Which self-cleavage does the source give for ACCGGAUGUGCUUUCCGGUCUGAUGAGUUCGUGACGACGAAACAG [C29U G35C] here?
The self-cleavage was 0.778.

For ACCGGAUGUGCUAUCCGGUCUGAUGGGUCCGUGAGGACGAAACAG [U13A A26G], which self-cleavage is on record?
The self-cleavage was 0.327.

For ACCGGAUGUGCUUUCCGGUCUGAUGAGUCCGUGAAGACGAUACAG [G35A A41U], which self-cleavage is on record?
Its self-cleavage is 0.278.

For AACGGAUCUGCUUUCCGGUCUGAUGAGUCCGUGAGGACGAAACAG [C2A G8C], which self-cleavage is on record?
The self-cleavage was 0.559.

Which self-cleavage does the source give for ACCGGAUGUGCUUUCCGGUCUGAGGAGACCGUGAGGACGAAACAG [U24G U28A] here?
Its self-cleavage is 0.912.

With ACCGGAUGUGCUUUCCGGUCUGAUGCGUCCAUGAGGACGAAACAG [A26C G31A] as the variant, how does the self-cleavage read?
Its self-cleavage is 0.687.

With ACCGGAUGUGCUUUCCGGUCUUAUGAGUCCGUGAGGACCAAACAG [G22U G39C] as the variant, how does the self-cleavage read?
The self-cleavage was 0.316.

With ACCGGAUGUGCUUUCCGGUCUUAUGAGUCCGUGAGGACAAAACAG [G22U G39A] as the variant, how does the self-cleavage read?
The self-cleavage was 0.35.

Which self-cleavage does the source give for ACCGGAUUUGCUUUCCGGUCUGAUGAGUCCGUGAGGACGACACAG [G8U A41C] here?
Its self-cleavage is 0.324.

With ACCGGAUUUGCUUUCCGGUCUGAUGAGUCCGUGAGGACGAUACAG [G8U A41U] as the variant, how does the self-cleavage read?
The self-cleavage was 0.34.

For ACCGGAUGUGCUUUCCGGUCUGGUGAGUCCGAGAGGACGAAACAG [A23G U32A], which self-cleavage is on record?
Its self-cleavage is 0.387.

For ACCGGCUGUGCUUUCCGGUCUGAUGAGUCCGUGAGGACGAUACAG [A6C A41U], which self-cleavage is on record?
The self-cleavage was 0.383.

For ACCGGAUGUGCUUUCAGGUCUGAUGAGACCGUGAGGACGAAACAG [C16A U28A], which self-cleavage is on record?
The self-cleavage was 0.434.

Which self-cleavage does the source give for ACCGGAUUUGCUUACCGGUCUGAUGAGUCCGUGAGGACGAAACAG [G8U U14A] here?
Its self-cleavage is 1.15.

Which self-cleavage does the source give for ACCGGAUGUGCUUUCCGGUCUGAUGAGUCCGUGAGGGCCAAACAG [A37G G39C] here?
Its self-cleavage is 0.371.

With ACCGGAUGGGCUUUCCGGACUGAUGAGUCCGUGAGGACGAAACAG [U9G U19A] as the variant, how does the self-cleavage read?
Its self-cleavage is 0.376.

For ACCGGUUGUGCCUUCCGGUCUGAUGAGUCCGUGAGGACGAAACAG [A6U U12C], which self-cleavage is on record?
Its self-cleavage is 0.716.

With GCCGGAUGUGCUUUCCGGUCUGAUGAGUGCGUGAGGACGAAACAG [A1G C29G] as the variant, how does the self-cleavage read?
The self-cleavage was 1.02.

Which self-cleavage does the source give for ACCGGAUGUGCUUUCCGGUCUGAUGAGUCCGUGAGGACGAAACCU [A44C G45U] here?
Its self-cleavage is 0.721.

For ACCGGAUGUGCUUGCCGGUCUGAUGAGUCCGUGAGCACGAAACAG [U14G G36C], which self-cleavage is on record?
Its self-cleavage is 0.377.

For ACCGGAUGUGCUUUCCGGUCUGAUGAGUGCGUGAGGACGAAACAC [C29G G45C], which self-cleavage is on record?
Its self-cleavage is 0.371.

For ACCGUAUGUGCUUCCCGGUCUGAUGAGUCCGUGAGGACGAAACAG [G5U U14C], which self-cleavage is on record?
Its self-cleavage is 0.837.

Which self-cleavage does the source give for ACCGGAUGUGCUUUCCGGUCUGAAGAGUCCGUGAGAACGAAACAG [U24A G36A] here?
Its self-cleavage is 0.669.

With ACCGGAUGCGCUUUCCGGUGUGAUGAGUCCGUGAGGACGAAACAG [U9C C20G] as the variant, how does the self-cleavage read?
The self-cleavage was 0.437.

For ACCGGAUGUGCUUGCCGGUCUGAUGAGUCCGUGAGGACAAAACAG [U14G G39A], which self-cleavage is on record?
The self-cleavage was 0.305.

For ACCGGAUGUGCUUUCCGGUCUCAUGAGUCCGUGAGGACGAAACUG [G22C A44U], which self-cleavage is on record?
Its self-cleavage is 0.323.

Which self-cleavage does the source give for ACCGGAUGUGCUUUCCGGUUGGAUGAGUCCGUGAGGACGAAACAG [C20U U21G] here?
The self-cleavage was 0.362.

For ACCGGAUGUGCUUUCCGGUCUGAUGAUUCCGUGAGGACGUAACAG [G27U A40U], which self-cleavage is on record?
Its self-cleavage is 0.402.

For ACCGGAUGUGUUUUCCGGUCUGUUGAGUCCGUGAGGACGAAACAG [C11U A23U], which self-cleavage is on record?
Its self-cleavage is 0.338.

With ACCGGAUGUGCUUUCCGGUCUGAUGAGUCCGUGAGCAAGAAACAG [G36C C38A] as the variant, how does the self-cleavage read?
The self-cleavage was 0.403.

With ACCGGAUGUGCUGUCCGGUCUGAUGAGUCGGUGAGGACGAAACAG [U13G C30G] as the variant, how does the self-cleavage read?
The self-cleavage was 0.593.

With ACCGGAUCUGCUUUCCGGUCUGAUGAGUCCGUGAGGACGCAACAG [G8C A40C] as the variant, how does the self-cleavage read?
The self-cleavage was 0.428.

Which self-cleavage does the source give for ACCGCAUGUGCUUUCCGGUCUCAUGAGUCCGUGAGGACGAAACAG [G5C G22C] here?
Its self-cleavage is 0.243.

With ACCGGAUGUGCUUUCAGGUCUGAUGAGUCCGUGAGGACGAACCAG [C16A A42C] as the variant, how does the self-cleavage read?
Its self-cleavage is 0.399.

For ACCCGAUGUGCUUUCCGGUCAGAUGAGUCCGUGAGGACGAAACAG [G4C U21A], which self-cleavage is on record?
Its self-cleavage is 0.309.

With ACCGGAUGUGCUUUCCGGUCUAAUGAGUCCCUGAGGACGAAACAG [G22A G31C] as the variant, how does the self-cleavage read?
Its self-cleavage is 0.396.

With ACCGGAUGUGCUUUCCGGUCUGAUGAGUCCUUGAGGACGAAUCAG [G31U A42U] as the variant, how does the self-cleavage read?
The self-cleavage was 0.295.

With ACCGGUUGUGCUUUCCGGUCUGAUGCGUCCGUGAGGACGAAACAG [A6U A26C] as the variant, how does the self-cleavage read?
The self-cleavage was 0.393.

With ACCCGAUGUGCUUUCCGGACUGAUGAGUCCGUGAGGACGAAACAG [G4C U19A] as the variant, how does the self-cleavage read?
The self-cleavage was 0.283.

For ACCGGAUGUGCUUUCCGGUCUGAUGAGUCCGCGAGGACGAAACUG [U32C A44U], which self-cleavage is on record?
Its self-cleavage is 0.359.

With ACCGGAUGUGCUUUCCGGUCUGAUGCGUCCGUGAGGACGAAACUG [A26C A44U] as the variant, how does the self-cleavage read?
Its self-cleavage is 0.344.

With ACCGGAUGUGCUUUCCGGUCUGAUGUGUCCGUGAGGACGAAACGG [A26U A44G] as the variant, how does the self-cleavage read?
The self-cleavage was 1.04.

For ACCGGAUGUGCUUUCCGGUCUGAUGUGUCCGUGAGGACGAAACUG [A26U A44U], which self-cleavage is on record?
Its self-cleavage is 0.443.

Which self-cleavage does the source give for ACCGGAUGUGCUUUCCGGUGUAAUGAGUCCGUGAGGACGAAACAG [C20G G22A] here?
Its self-cleavage is 0.252.

With ACCGGAUGUGCUUUCCGGUCUGAUGAGUCCGUGAGGACCAAUCAG [G39C A42U] as the variant, how does the self-cleavage read?
The self-cleavage was 0.39.

For ACCGGAUGUGAUUUCCGGUCUGUUGAGUCCGUGAGGACGAAACAG [C11A A23U], which self-cleavage is on record?
Its self-cleavage is 0.401.

With ACCGGAUGUGCUUUCCGGUCUGAUAAGUCCGUGAGGACGAAACAG [G25A] as the variant, how does the self-cleavage read?
Its self-cleavage is 0.377.

For ACCGGAUGUGCUUUCCGGUCUGAUUAGUCCGUGAGGACGAAACAG [G25U], which self-cleavage is on record?
Its self-cleavage is 0.331.

Which self-cleavage does the source give for ACCGGUUGUGCUUUCCGGUCUGAUGAGUCCGUGAGGAGGAAACAG [A6U C38G] here?
The self-cleavage was 0.458.

Which self-cleavage does the source give for ACCGGAUGUGCUUUCCGGUCGGAGGAGUCCGUGAGGACGAAACAG [U21G U24G] here?
The self-cleavage was 0.536.

With ACCGGAUGUGCUUGCCGGUCUGAUGAGUCCGUGAGGACGAAAGAG [U14G C43G] as the variant, how does the self-cleavage read?
Its self-cleavage is 0.416.

Which self-cleavage does the source give for ACCGGAUGUGCUUUCCGGUCUGACGAGUCCGUGAGGUCGAAACAG [U24C A37U] here?
The self-cleavage was 0.768.

For ACCGGAUGUGCUUUCCAGUCUGAUGAAUCCGUGAGGACGAAACAG [G17A G27A], which self-cleavage is on record?
The self-cleavage was 0.51.

With GCCGGAUGUGGUUUCCGGUCUGAUGAGUCCGUGAGGACGAAACAG [A1G C11G] as the variant, how does the self-cleavage read?
The self-cleavage was 2.12.

For ACCGGAUGUGCUUUCCGGUCUGAUGAGUCCGUAAAGACGAAACAG [G33A G35A], which self-cleavage is on record?
The self-cleavage was 0.825.
